Measurements taken from the RNAGym collection of RNA variant scans (doi:10.7554/elife.80360).

B1: Hairpin Ribozyme (parent)
chain: GUCCUCUUUCACGUGCGCGUGAAAGAGAGAAGUGAACCAGAGAAACACACGUUGUGGUAUAUUACCUGGUA

Variants of: B1
Test: self-cleavage, relative activity (ratio to wild type); higher = more cleavage; co-transcriptional

Variant | self-cleavage
C46A U55A | 0.204
C50A C65U | 0.179
A49C A59C | 0.168
A49C A59G | 0.167
A47G A64U | 0.167
C46A G69C | 0.0874
C46A G69U | 0.171
C48G U70A | 0.144
C48G U70G | 0.0256
C50A U58G | 0.242
A49C G56U | 0.23
A47C U60G | 0.324
A47C U60A | 0.219
C50G U58A | 0.0745
C50G U58C | 0.297
A47G G51A | 0.15
A49G G56U | 0.261
A49G G69C | 0.186
A49G G69A | 0.172
C48U A61C | 0.128
A49G U55A | 0.431
A49G U67C | 0.125
A49G U67G | 0.195
A49U G56A | 0.136

Variant | self-cleavage
A49U C65A | 0.188
A47C U58A | 0.316
C50A U67A | 0.153
C50G U53A | 0.251
C50G U53G | 0.0749
A49G C50G | 0.166
C46U U67A | 0.0755
C46U U67C | 0.11
A49U U62A | 0.186
C48U U62A | 0.201
C48U U62C | 0.118
C50A U63G | 0.2
C50A U63A | 0.0698
C50A U60G | 0.248
A47C A59C | 0.19
A47C A59U | 0.112
A49G U60A | 0.475
A49G U60C | 0.722
A47C G69C | 0.196
A49C A71G | 0.177
A49C G57U | 0.0763
A47C | 0.335
A47U | 0.154
A47G | 0.162

Variant | self-cleavage
A47G U52A | 0.0547
C50U G56A | 0.203
C46U G57A | 0.186
C46U G57C | 0.0631
C46U G57U | 0.234
A47G C65A | 0.0744
C46U U62A | 0.148
C48U U70G | 0.211
C48U U70A | 0.152
C46G U55C | 0.151
A47C A71G | 0.344
A47C A71U | 0.147
C48U U60A | 0.107
C48A U53C | 0.18
C48G U63G | 0.0813
G51A G54C | 0.36
C48U G56U | 0.231
C50U U70A | 0.266
A49C U63C | 0
C48G C50U | 0.177
C48G C50A | 0.0785
C48G C50G | 0.137
C46G A49U | 0.0713
A47G G54U | 0.163

Variant | self-cleavage
A49G U52A | 0.614
A49G U52G | 0.371
A49G U52C | 0.502
G51A A61C | 0.0891
C50G G68A | 0.132
A49G A71U | 0.397
A49G A71C | 1.18
A49G A71G | 0.526
C46G G56C | 0.123
C46G G56A | 0.127
C46G G56U | 0.173
A47G C48U | 0.185
A47G U67A | 0.136
A47G U67C | 0.129
C48U U55G | 0.223
C48U U55A | 0.196
C50G U67G | 0.101
C50G U67A | 0.274
G51A A64G | 0.666
C48G U55A | 0.148
A49G A59U | 0.131
C50A U52A | 0.293
C50A U52C | 0.31
C50A U52G | 0.361

Variant | self-cleavage
A49C U62C | 0.22
A49C U52G | 0.14
A49C U52A | 0.0356
C50G A64U | 0.19
A49U A59G | 0.091
C50U U60A | 0.251
C50A C66A | 0.145
A47C U55G | 0.136
A47G U53A | 0.176
A47G U53C | 0
A47C G56A | 0.233
A49G U62G | 0.0712
A49G U62A | 0.0894
C46G C65G | 0.078
A47C A61C | 0.152
A49U U67G | 0.109
C48U A59G | 0.121
C48U A59C | 0.222
C46U A59G | 0.112
C46U A59U | 0.149
A49G U53A | 0.4
C48A U70G | 0.144
C48A U70A | 0.209
C46G U62C | 0.249

Variant | self-cleavage
C46G U62G | 0.14
C48U G68C | 0.247
C48U G68A | 0.244
C48A A61C | 0.201
A47C C65U | 0.219
C50A U53G | 0.395
A47G A71C | 0.599
A47G A71U | 0.221
A47C U70C | 0.298
A47U U62G | 0.158
A49C G69C | 0.241
C50U G51C | 0.256
A49C G68A | 0.164
A49C G68C | 0.15
A49C G68U | 0.118
A49U G51A | 0.209
A49U G51C | 0.166
C50A U70C | 0.244
C46U G68C | 0.123
A47G C66U | 0.239
C48G A71U | 0.14
C48G A71C | 0.231
A47U C48A | 0.157
A47U C48U | 0.112

Variant | self-cleavage
A49C A61G | 0.172
C46G A47U | 0.136
A49G C66A | 0.302
A49G C66G | 0.192
C50U G69U | 0.128
C46G A64U | 0.185
C46G A64C | 0.152
C46G A64G | 0.144
C46G A71U | 0.211
C50A A71U | 0.227
C50A A71C | 0.816
C50U G54A | 0.864
A47G G56U | 0.169
A49U G54U | 0.36
C46A U53G | 0.159
C46A U53C | 0.148
C46A U53A | 0.139
A49C C50U | 0.122
C48U U63G | 0.163
C48U U63C | 0.19
C46U G69U | 0.172
C46U G69A | 0.123
C50A G57U | 0.128
